± gives the standard error. Fewer inactive variants are shown than the library holds.
B1: glmS ribozyme (parent)
chain: AUAAAAGCGCCAGAACUACAGAAAUGUAGUUGACGAGGAGGAGGUUUAUCGAAUUUUCGGCGGAUGCCUCCAAA

Tests used:
Conditions in all cases: with glucosamine-6-phosphate
glucosamine-6-phosphate [1] = variants of: B1; experiment: self-cleavage kobs at 40 uM GlcN6P; higher = faster cleavage; RNA array
How it was run: (§1)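 Barcoded ribozyme variants were transcribed in situ on sequenced MiSeq chips by E. coli RNA polymerase. At 37 °C, a hybridised Cy3 probe tracked them while glucosamine-6-phosphate (40 μM to 10 mM) in HEPES/KCl/Mg(OAc)2 buffer flowed in and tiles were imaged over ~14 h. Per-tile medians of signals normalised to baseline and to non-cleaving reference variants were fit to one- or two-exponential decays, giving kobs. kcat and KM came from weighted Michaelis–Menten fits across concentrations.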

glucosamine-6-phosphate [2] = variants of: B1; experiment: self-cleavage kobs at 160 uM GlcN6P; higher = faster cleavage; RNA array
How it was run: as §1

glucosamine-6-phosphate [3] = variants of: B1; experiment: self-cleavage kobs at 640 uM GlcN6P; higher = faster cleavage; RNA array
How it was run: as §1

glucosamine-6-phosphate [4] = variants of: B1; experiment: self-cleavage kobs at 2500 uM GlcN6P; higher = faster cleavage; RNA array
How it was run: as §1

glucosamine-6-phosphate [5] = variants of: B1; experiment: self-cleavage kobs at 10000 uM GlcN6P; higher = faster cleavage; RNA array
How it was run: as §1

| Variant | self-cleavage kobs at 40 uM GlcN6P (glucosamine-6-phosphate [1]) | self-cleavage kobs at 160 uM GlcN6P (glucosamine-6-phosphate [2]) | self-cleavage kobs at 640 uM GlcN6P (glucosamine-6-phosphate [3]) | self-cleavage kobs at 2500 uM GlcN6P (glucosamine-6-phosphate [4]) | self-cleavage kobs at 10000 uM GlcN6P (glucosamine-6-phosphate [5]) |
| --- | --- | --- | --- | --- | --- |
| A14G G62A | < 1e-05 s⁻¹ |  |  |  |  |
| U56G G62A G63A | < 1e-05 s⁻¹ |  |  |  |  |
| U31A U49C | < 1e-05 s⁻¹ | < 1e-05 s⁻¹ | < 1e-05 s⁻¹ | < 1e-05 s⁻¹ | < 1e-05 s⁻¹ |
| A6U G32C G41U | < 1e-05 s⁻¹ |  |  |  |  |
| C50G G62A C70U | 9.58e-05 ± 2.3e-05 s⁻¹ |  | 0.000184 ± 4.7e-05 s⁻¹ | 0.000549 ± 0.00012 s⁻¹ | 0.000104 ± 1.6e-05 s⁻¹ |
| A12G G13U U31C U49G | < 1e-05 s⁻¹ |  |  |  |  |
| G9U C34A | < 1e-05 s⁻¹ | < 1e-05 s⁻¹ | < 1e-05 s⁻¹ |  | < 1e-05 s⁻¹ |
| G13C U45C U46A | < 1e-05 s⁻¹ | < 1e-05 s⁻¹ | < 1e-05 s⁻¹ |  | < 1e-05 s⁻¹ |
| U31G A42C | < 1e-05 s⁻¹ | < 1e-05 s⁻¹ |  | < 1e-05 s⁻¹ |  |
| U47C G62A | < 1e-05 s⁻¹ |  |  |  | < 1e-05 s⁻¹ |
| G44A A52U | < 1e-05 s⁻¹ | < 1e-05 s⁻¹ | < 1e-05 s⁻¹ |  |  |
| A36G C50G U56G C61A | 0.000189 ± 6.2e-05 s⁻¹ |  |  |  | 0.000459 ± 0.00011 s⁻¹ |
| U31G G35C G44U U54A | < 1e-05 s⁻¹ |  |  | < 1e-05 s⁻¹ | < 1e-05 s⁻¹ |
| G35A A64U C71A | < 1e-05 s⁻¹ |  |  |  |  |
| C10A C16A G51U C68G C71A | 7.7e-05 ± 2e-05 s⁻¹ |  | 0.00052 ± 0.00016 s⁻¹ |  | 8.53e-05 ± 1.6e-05 s⁻¹ |
| G13C G35U | < 1e-05 s⁻¹ | < 1e-05 s⁻¹ |  |  | < 1e-05 s⁻¹ |
| G9A A39G | < 1e-05 s⁻¹ | < 1e-05 s⁻¹ |  |  |  |
| G9U G40U G44C G60U | < 1e-05 s⁻¹ |  |  |  | < 1e-05 s⁻¹ |
| A52G G66C | < 1e-05 s⁻¹ |  |  | 4.69e-05 ± 1.5e-05 s⁻¹ |  |
| U54G U55A | 0.00109 ± 0.00018 s⁻¹ |  |  |  | 0.0495 ± 0.015 s⁻¹ |
| A12U U31G A33G C50U | < 1e-05 s⁻¹ |  |  |  |  |
| G29U U30G G43C C68G | 0.000152 ± 2.6e-05 s⁻¹ |  |  |  | 0.0065 ± 0.0015 s⁻¹ |
| A12U G13A U31A G38A G40A | < 1e-05 s⁻¹ |  |  |  | < 1e-05 s⁻¹ |
| A14U U47A | 0.000141 ± 1.5e-05 s⁻¹ | 0.000575 ± 0.00028 s⁻¹ |  |  | 0.00513 ± 0.00047 s⁻¹ |

| Variant | self-cleavage kobs at 40 uM GlcN6P (glucosamine-6-phosphate [1]) | self-cleavage kobs at 160 uM GlcN6P (glucosamine-6-phosphate [2]) | self-cleavage kobs at 640 uM GlcN6P (glucosamine-6-phosphate [3]) | self-cleavage kobs at 2500 uM GlcN6P (glucosamine-6-phosphate [4]) | self-cleavage kobs at 10000 uM GlcN6P (glucosamine-6-phosphate [5]) |
| --- | --- | --- | --- | --- | --- |
| C58G G59U | < 1e-05 s⁻¹ | < 1e-05 s⁻¹ | < 1e-05 s⁻¹ | < 1e-05 s⁻¹ | < 1e-05 s⁻¹ |
| G21C G29A | 6.68e-05 ± 2.4e-05 s⁻¹ |  |  |  | 0.00366 ± 0.00094 s⁻¹ |
| G38U A39U G60C C68A | < 1e-05 s⁻¹ |  |  | < 1e-05 s⁻¹ |  |
| A6C G51C | < 1e-05 s⁻¹ | < 1e-05 s⁻¹ | < 1e-05 s⁻¹ | < 1e-05 s⁻¹ | < 1e-05 s⁻¹ |
| A39G C71G | 0.000215 ± 2.7e-05 s⁻¹ | 0.000373 ± 6.9e-05 s⁻¹ | 0.000657 ± 8.3e-05 s⁻¹ | 0.00189 ± 0.00037 s⁻¹ | 0.00538 ± 0.0012 s⁻¹ |
| U30G G60C | < 1e-05 s⁻¹ |  | < 1e-05 s⁻¹ |  | < 1e-05 s⁻¹ |
| A39C A42U A48G C50A | < 1e-05 s⁻¹ |  |  |  |  |
| U46G G51C | < 1e-05 s⁻¹ |  | < 1e-05 s⁻¹ |  | < 1e-05 s⁻¹ |
| C16U A36G | < 1e-05 s⁻¹ | < 1e-05 s⁻¹ | < 1e-05 s⁻¹ |  |  |
| C50G C61U | 3.66e-05 ± 1.1e-05 s⁻¹ | 6.61e-05 ± 1.4e-05 s⁻¹ | 9.4e-05 ± 1.3e-05 s⁻¹ | 0.000423 ± 0.0002 s⁻¹ |  |
| G7C A42C C61U | < 1e-05 s⁻¹ |  |  |  |  |
| A12G G59A | < 1e-05 s⁻¹ | < 1e-05 s⁻¹ |  |  | 2.34e-05 ± 1.1e-05 s⁻¹ |
| G9U G35C G43A | < 1e-05 s⁻¹ | < 1e-05 s⁻¹ | < 1e-05 s⁻¹ |  |  |
| G40A A53C G62U | < 1e-05 s⁻¹ |  |  |  | < 1e-05 s⁻¹ |
| G9C G62A | < 1e-05 s⁻¹ |  | < 1e-05 s⁻¹ |  | < 1e-05 s⁻¹ |
| C34U G62C | < 1e-05 s⁻¹ | < 1e-05 s⁻¹ | < 1e-05 s⁻¹ | < 1e-05 s⁻¹ | < 1e-05 s⁻¹ |
| A6U U31C G41A | < 1e-05 s⁻¹ |  |  |  | < 1e-05 s⁻¹ |
| A15G U69C | 0.00027 ± 7e-05 s⁻¹ |  | 0.00141 ± 0.00058 s⁻¹ | 0.00345 ± 0.0012 s⁻¹ |  |
| G9C U30A U46C U56A | < 1e-05 s⁻¹ |  |  |  | < 1e-05 s⁻¹ |
| A15G A48U U55C | < 1e-05 s⁻¹ |  |  |  | 0.000412 ± 8.4e-05 s⁻¹ |
| A15U G40U G51U C71U | < 1e-05 s⁻¹ |  |  |  |  |
| G13U C16G A64U C67G | < 1e-05 s⁻¹ |  |  |  | < 1e-05 s⁻¹ |
| U45C G63A | < 1e-05 s⁻¹ | < 1e-05 s⁻¹ |  | < 1e-05 s⁻¹ | < 1e-05 s⁻¹ |
| A15G C70U | 0.00115 ± 0.00011 s⁻¹ | 0.00217 ± 0.00032 s⁻¹ | 0.0045 ± 0.00057 s⁻¹ | 0.0168 ± 0.0062 s⁻¹ | 0.0598 ± 0.012 s⁻¹ |

From the supplement of paper PMC7125110
